How the values were obtained:
CXCL3_HUMAN = target: T1, CXCL3_HUMAN (human, UniProt P19876 35-107); experiment: BLI [Cont.) C]
T1 sequence: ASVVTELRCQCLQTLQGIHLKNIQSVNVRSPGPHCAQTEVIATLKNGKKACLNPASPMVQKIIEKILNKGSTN

CXCL8_HUMAN = target: T2, CXCL8_HUMAN (human, UniProt P10145 28-99); experiment: BLI [Cont.) C]
T2 sequence: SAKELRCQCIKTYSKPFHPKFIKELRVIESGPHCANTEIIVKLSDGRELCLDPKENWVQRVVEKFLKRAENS

CXCL12_HUMAN = CXCL12_HUMAN (human, UniProt P48061 22-89); experiment: BLI [Cont.) C]
CXCL6_HUMAN = target: T3, CXCL6_HUMAN (human, UniProt P80162 38-114); experiment: BLI [Cont.) C]
T3 sequence: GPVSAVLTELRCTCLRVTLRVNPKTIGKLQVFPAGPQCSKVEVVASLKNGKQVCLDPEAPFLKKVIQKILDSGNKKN

CXCL14_HUMAN = target: T4, CXCL14_HUMAN (human, UniProt O95715 35-111); experiment: BLI [Cont.) C]
T4 sequence: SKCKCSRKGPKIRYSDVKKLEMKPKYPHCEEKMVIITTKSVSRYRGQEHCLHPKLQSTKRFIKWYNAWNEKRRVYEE

CXCL5_HUMAN = target: T5, CXCL5_HUMAN (human, UniProt P42830 41-114); experiment: BLI [Cont.) C]
T5 sequence: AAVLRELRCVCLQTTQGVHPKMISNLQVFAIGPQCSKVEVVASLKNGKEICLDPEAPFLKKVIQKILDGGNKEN

CXCL4_HUMAN = target: T6, CXCL4_HUMAN (human, UniProt P02776 32-101); experiment: BLI [Cont.) C]
T6 sequence: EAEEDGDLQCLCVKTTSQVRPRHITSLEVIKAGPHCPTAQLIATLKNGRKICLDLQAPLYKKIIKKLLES

CCL16_HUMAN = target: T7, CCL16_HUMAN (human, UniProt O15467 24-120); experiment: BLI
T7 sequence: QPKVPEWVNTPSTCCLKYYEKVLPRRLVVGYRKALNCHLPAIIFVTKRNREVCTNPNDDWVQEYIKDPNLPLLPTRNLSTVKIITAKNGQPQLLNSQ

CCL4L1_HUMAN = target: T8, CCL4L1_HUMAN (human, UniProt Q8NHW4 24-92); experiment: BLI
T8 sequence: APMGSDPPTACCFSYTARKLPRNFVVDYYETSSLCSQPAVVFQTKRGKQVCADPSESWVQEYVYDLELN

CCL17_HUMAN = target: T9, CCL17_HUMAN (human, UniProt Q92583 24-94); experiment: BLI
T9 sequence: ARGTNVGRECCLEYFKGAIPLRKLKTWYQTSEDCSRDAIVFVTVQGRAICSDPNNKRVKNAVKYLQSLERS

CCL11_HUMAN = CCL11_HUMAN (human, UniProt P51671 24-97); experiment: BLI
Sequence of CCL11_HUMAN (P51671 24-97 limits assumed): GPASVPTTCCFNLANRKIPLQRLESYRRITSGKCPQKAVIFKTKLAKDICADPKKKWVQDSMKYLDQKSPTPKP

CCL27_HUMAN = target: T10, CCL27_HUMAN (human, UniProt Q9Y4X3 25-112); experiment: BLI
T10 sequence: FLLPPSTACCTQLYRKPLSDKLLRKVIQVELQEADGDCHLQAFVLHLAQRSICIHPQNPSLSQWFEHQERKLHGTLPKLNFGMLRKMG

CCL1_HUMAN = target: T11, CCL1_HUMAN (human, UniProt P22362 24-96); experiment: BLI
T11 sequence: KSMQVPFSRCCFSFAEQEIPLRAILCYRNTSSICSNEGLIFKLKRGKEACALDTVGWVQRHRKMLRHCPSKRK

CCL3L1_HUMAN = target: T12, CCL3L1_HUMAN (human, UniProt P16619 24-93); experiment: BLI
T12 sequence: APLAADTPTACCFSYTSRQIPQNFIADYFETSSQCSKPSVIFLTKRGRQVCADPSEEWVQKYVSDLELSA

CCL22_HUMAN = target: T13, CCL22_HUMAN (human, UniProt O00626 25-93); experiment: BLI
T13 sequence: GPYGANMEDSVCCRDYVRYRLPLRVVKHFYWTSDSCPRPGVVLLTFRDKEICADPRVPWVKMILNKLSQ

CCL20_HUMAN = CCL20_HUMAN (human, UniProt P78556 27-96); experiment: BLI
Sequence of CCL20_HUMAN (P78556 27-96 limits assumed): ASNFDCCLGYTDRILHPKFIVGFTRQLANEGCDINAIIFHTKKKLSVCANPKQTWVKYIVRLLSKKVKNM

CCL21_HUMAN = target: T14, CCL21_HUMAN (human, UniProt O00585 24-134); experiment: BLI
T14 sequence: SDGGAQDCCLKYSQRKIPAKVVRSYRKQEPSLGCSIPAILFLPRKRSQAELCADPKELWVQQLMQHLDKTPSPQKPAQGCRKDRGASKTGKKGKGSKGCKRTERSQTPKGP

CCL3_HUMAN = target: T15, CCL3_HUMAN (human, UniProt P10147 24-92); experiment: BLI
T15 sequence: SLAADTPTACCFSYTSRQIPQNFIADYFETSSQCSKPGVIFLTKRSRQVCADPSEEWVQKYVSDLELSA

CCL4_HUMAN = target: T16, CCL4_HUMAN (human, UniProt P13236 24-92); experiment: BLI
T16 sequence: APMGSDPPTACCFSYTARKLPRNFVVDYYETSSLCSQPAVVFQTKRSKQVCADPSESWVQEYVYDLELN

CCL13_HUMAN = CCL13_HUMAN (human, UniProt Q99616 24-98); experiment: BLI
Sequence of CCL13_HUMAN (Q99616 24-98 limits assumed): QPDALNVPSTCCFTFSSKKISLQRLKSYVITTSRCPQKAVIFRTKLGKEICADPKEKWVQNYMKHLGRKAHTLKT

CCL15_HUMAN = target: T17, CCL15_HUMAN (human, UniProt Q16663 22-113); experiment: BLI
T17 sequence: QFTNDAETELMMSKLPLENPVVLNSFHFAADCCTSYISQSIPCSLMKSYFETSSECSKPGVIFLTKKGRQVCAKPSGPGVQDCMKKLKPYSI

CCL2_HUMAN = CCL2_HUMAN (human, UniProt P13500 24-99); experiment: BLI
Sequence of CCL2_HUMAN (P13500 24-99 limits assumed): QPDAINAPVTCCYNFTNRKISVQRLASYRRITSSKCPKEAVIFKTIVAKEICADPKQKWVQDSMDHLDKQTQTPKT

Sequence of CXCL12_HUMAN (P48061 22-89 limits assumed): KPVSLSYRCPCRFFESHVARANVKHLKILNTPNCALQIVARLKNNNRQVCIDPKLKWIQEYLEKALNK

B1: P1243:G4S:P1156 (designed binder)
chain: RNHTEDNSTEYYDYEEARCACPARHLNNTNGTVLKLLGCHYFCNGTLCTAPDGYPCYNLTAQQVRTLTTYPNTSCAVGVCMKGTCVKNGTMEQCFKTPGGGGSADDDNELFTVQYCGMNCTKDEGGTWTGCTGKKEGCKCYHESGKNYGLCLSTEYTDFSQYGNPSDSEIEAAKPKRSDTLSH
binding result (CXCL3_HUMAN): no binding (tested: 300 nM)
Kd (CXCL8_HUMAN): 7.63 nM
binding result (CXCL12_HUMAN): no binding (tested: 300 nM)
binding result (CXCL6_HUMAN): no binding (tested: 300 nM)
binding result (CXCL14_HUMAN): no binding (tested: 300 nM)
binding result (CXCL5_HUMAN): no binding (tested: 300 nM)
binding result (CXCL4_HUMAN): no binding (tested: 300 nM)
binding result (CCL16_HUMAN): no binding (tested: 300 nM)
binding result (CCL4L1_HUMAN): no binding (tested: 300 nM)
Kd (CCL17_HUMAN): 3.51 nM
Kd (CCL11_HUMAN): 19.7 nM
Kd (CCL27_HUMAN): 24.4 nM
binding result (CCL1_HUMAN): no binding (tested: 300 nM)
Kd (CCL3L1_HUMAN): 4.06 nM
binding result (CCL22_HUMAN): no binding (tested: 300 nM)
binding result (CCL20_HUMAN): no binding (tested: 300 nM)
Kd (CCL21_HUMAN): 53.8 nM
Kd (CCL3_HUMAN): 16.4 nM
Kd (CCL4_HUMAN): 19.4 nM
Kd (CCL13_HUMAN): 1.33 nM
Kd (CCL15_HUMAN): 8.71 nM
binding result (CCL2_HUMAN): no binding (tested: 300 nM)
